Results: the supplement of paper PMC10567573

B1: INTS3 (parent)
chain: FSDDEEDLNSKGKKREFRFHPIKE
B2: SNAP91 (parent)
chain: FAAPSPATTASPAKVDSSGVIDLF

Variants of: B1
Experiment: protein stability index of a GFP-peptide fusion (GPS, HEK-293T) (PSI 1-6); higher = more stable
Conditions: c terminus: a fixed tail appended
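Also: lentivirally expressed fusions sorted by FACS into six bins by GFP to DsRed ratio, PSI derived from sequencing read proportions per bin multiplied by bin number.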

In order of falling protein stability index:
1. FSDDEEDLNSKGKKREFRFLPIKE  5.1
2. FSDDEEDLNSKGKKREFRTHPIKE  5.06
3. FSDDEEDLNSKGKKREFRFNPIKE  4.69
4. FSDDEEDLNSKGKKREFRFTPIKE  4.59
5. FSDDEEDLNSKGKKREDRFHPIKE  4.43
6. FSDDEEDLNSKGKKREFRFHNIKE  4.11
7. FSDDEEDLNSKGKKREFRFHPIEE  3.64
8. FSDDEEDLNSDGKKREFRFHPIKE  3.56
9. FSDDEEDLTSKGKKREFRFHPIKE  3.36
10. FKDDEEDLNSKGKKREFRFHPIKE  3.23
11. FSDDEEDLNSKGNKREFRFHPIKE  3.2
12. FSDDEEDLNSKGKKREFRFHPIQE  3.18
13. FSDDEEDLNSKGKKREFRFHPIVE  3.06
14. FSDDEEDLNEKGKKREFRFHPIKE  2.99
15. FSDDEEDLNSCGKKREFRFHPIKE  2.99
16. FSDHEEDLNSKGKKREFRFHPIKE  2.95
17. DSDDEEDLNSKGKKREFRFHPIKE  2.84
18. FSDDIEDLNSKGKKREFRFHPIKE  2.81
19. FSDDEEDLNSMGKKREFRFHPIKE  2.79
20. FSDDEEDLHSKGKKREFRFHPIKE  2.77
21. FSDDEEDLQSKGKKREFRFHPIKE  2.68
22. FSDDTEDLNSKGKKREFRFHPIKE  2.68
23. FSDDEEDLNSKGKKPEFRFHPIKE  2.6
24. FSDDEEDLNSKGKKREFRFHWIKE  2.53
25. FSDDEEDLNSKGKKREFRFHPIKQ  2.35
26. FSDDEEDLFSKGKKREFRFHPIKE  2.31
27. FSDDEEDLNSKGKKREFRFHPIKH  2.2
28. FSDFEEDLNSKGKKREFRFHPIKE  2.19
29. FSDDEEDLNSKGKKREFRFHPIKG  2.17

Variants of: B2
Experiment: as above
Conditions: c terminus: a fixed tail appended

In order of falling protein stability index:
1. GAAPSPATTASPAKVDSSGVIDLF  4.43
2. EAAPSPATTASPAKVDSSGVIDLF  4.39
3. DAAPSPATTASPAKVDSSGVIDLF  4.3
4. FEAPSPATTASPAKVDSSGVIDLF  4.29
5. QAAPSPATTASPAKVDSSGVIDLF  4.28
6. KAAPSPATTASPAKVDSSGVIDLF  4.14
7. TAAPSPATTASPAKVDSSGVIDLF  4.13
8. AAAPSPATTASPAKVDSSGVIDLF  3.95
9. VAAPSPATTASPAKVDSSGVIDLF  3.9
10. HAAPSPATTASPAKVDSSGVIDLF  3.86
11. CAAPSPATTASPAKVDSSGVIDLF  3.82
12. NAAPSPATTASPAKVDSSGVIDLF  3.79
13. MAAPSPATTASPAKVDSSGVIDLF  3.76
14. FDAPSPATTASPAKVDSSGVIDLF  3.57
15. FGAPSPATTASPAKVDSSGVIDLF  3.57
16. SAAPSPATTASPAKVDSSGVIDLF  3.56
17. IAAPSPATTASPAKVDSSGVIDLF  3.47
18. FNAPSPATTASPAKVDSSGVIDLF  3.45
19. LAAPSPATTASPAKVDSSGVIDLF  3.4
20. FTAPSPATTASPAKVDSSGVIDLF  3.36
21. FKAPSPATTASPAKVDSSGVIDLF  3.08
22. FPAPSPATTASPAKVDSSGVIDLF  3.03
23. WAAPSPATTASPAKVDSSGVIDLF  3.01
24. FSAPSPATTASPAKVDSSGVIDLF  2.97
25. RAAPSPATTASPAKVDSSGVIDLF  2.94
26. FRAPSPATTASPAKVDSSGVIDLF  2.89
27. FASPSPATTASPAKVDSSGVIDLF  2.61
28. FATPSPATTASPAKVDSSGVIDLF  2.6
29. FLAPSPATTASPAKVDSSGVIDLF  2.56
30. FAVPSPATTASPAKVDSSGVIDLF  2.46
31. FAPPSPATTASPAKVDSSGVIDLF  2.44
32. FFAPSPATTASPAKVDSSGVIDLF  2.44
33. FAKPSPATTASPAKVDSSGVIDLF  2.38
34. FAADSPATTASPAKVDSSGVIDLF  2.33
35. FALPSPATTASPAKVDSSGVIDLF  2.33
36. FAGPSPATTASPAKVDSSGVIDLF  2.32
37. FAQPSPATTASPAKVDSSGVIDLF  2.31
38. YAAPSPATTASPAKVDSSGVIDLF  2.3
39. FADPSPATTASPAKVDSSGVIDLF  2.29
40. FAIPSPATTASPAKVDSSGVIDLF  2.28
41. FMAPSPATTASPAKVDSSGVIDLF  2.27
42. FAAHSPATTASPAKVDSSGVIDLF  2.26
43. FAAESPATTASPAKVDSSGVIDLF  2.23
44. FAHPSPATTASPAKVDSSGVIDLF  2.23
45. FAEPSPATTASPAKVDSSGVIDLF  2.17
46. FQAPSPATTASPAKVDSSGVIDLF  2.17
47. FARPSPATTASPAKVDSSGVIDLF  2.12
48. FAWPSPATTASPAKVDSSGVIDLF  2.09
49. FYAPSPATTASPAKVDSSGVIDLF  2.09
50. FAAKSPATTASPAKVDSSGVIDLF  2.08
51. FIAPSPATTASPAKVDSSGVIDLF  2.03
52. FACPSPATTASPAKVDSSGVIDLF  1.99
53. FWAPSPATTASPAKVDSSGVIDLF  1.99
54. FAAGSPATTASPAKVDSSGVIDLF  1.95
55. FAMPSPATTASPAKVDSSGVIDLF  1.92
56. FANPSPATTASPAKVDSSGVIDLF  1.86
57. FAAASPATTASPAKVDSSGVIDLF  1.79
58. FAYPSPATTASPAKVDSSGVIDLF  1.79
59. FAAISPATTASPAKVDSSGVIDLF  1.77
60. FCAPSPATTASPAKVDSSGVIDLF  1.69
61. FVAPSPATTASPAKVDSSGVIDLF  1.69
62. FHAPSPATTASPAKVDSSGVIDLF  1.63
63. FAFPSPATTASPAKVDSSGVIDLF  1.62
64. FAAFSPATTASPAKVDSSGVIDLF  1.61
65. FAACSPATTASPAKVDSSGVIDLF  1.56
